The values below come from US20240216490A1, “Autoantigens Engineered to Suppress Autoimmune Response” (Osprey Biopharmaceuticals, Inc., priority 2022, published 2024).

What all share (format): in vivo, mouse
The subject of data set [1] is C57BL6 mice. Briefly: prophylactic tolerization and anti-drug antibody (ADA) production in C57BL6 mice (Example 4). Conditions: 4 weekly s.c. doses of 4 mg/kg; serum day 28. From the text:
To evaluate the production of antibodies specific to adalimumab, two control groups of C57BL6 mice were immunized with adalimumab or the individual SigL-conjugated adalimumab antibodies. Conjugates bear BPC-Neu5Gc-based Siglec Ligand-Linker structures with affinity for Siglec-2. On study day −1, animals were randomized into treatment groups based on body weight. On study day 0, animals were bled for baseline serum and then injected subcutaneously (s.q.) with adalimumab or the individual SigL-conjugated adalimumab antibodies once every seven days for a total of four injections over twenty-eight days. The individual antigens were prepared by making a 0.8 mg/ml antigen solution in sterile buffered saline. Animals were then injected with 0.1 ml (˜4 ml/kg) of the 0.8 mg/ml antigen on the rear flanks. The total dose based on a 20 g mouse would be 4 mg/kg per injection. […]
(§1) Anti-drug antibody (ADA) response assays were performed on 96-well assay plates (Nunc Plates, Black 96-Well Immuno Plates, Thermo Scientific, 437111) coated with antigen, as follows. […] The excitation and emission settings for the QuantaBlu Fluorogenic Peroxide Substrates are 325 nm and 420 nm and the relative florescence units were measured using a SpectraMax plate reader. […] Titers were determined by the dilution of serum that gives a 2× OD above background.

Data set [2] has as its system C57BL6 mice. The data set is described as follows: anti-antigen antibody production in C57BL6 mice pre-dosed with adalimumab (Example 5). The note with it: one to four weekly 4 mg/kg s.c. doses (groups A to D); serum day 27.
Source text: To evaluate the production of antibodies specific to adalimumab-SigL conjugates after pre-dosing with adalimumab, C57BL6 mice were immunized with adalimumab one, two, three, or four times (groups A to D), or once with adalimumab followed by two doses of adalimumab-SigL (Group E) (FIG. 5). Conjugates bear BPC-Neu5Gc-based Siglec Ligand-Linker structures with affinity for Siglec-2. On study day −1, animals were randomized into treatment groups based on body weight. On study day 0, animals were bled for baseline serum and then injected subcutaneously (s.q.) with adalimumab, SigL-conjugated adalimumab antibody, or PBS, once every seven days for a total of four injections over twenty-eight days. The individual antigens were prepared by making a 0.8 mg/ml antigen solution in sterile buffered saline. Animals were then injected with 0.1 ml (˜4 ml/kg) of the 0.8 mg/ml antigen on the rear flanks. […]
as §1

In data set [3] the test system is C57Bl/6 mice. The data set is described as follows: durability of tolerization with late adalimumab challenges (Example 12). Conditions: 4 weekly 4 mg/kg s.c. doses, then adalimumab 4 mg/kg at days 91, 147, 174, 202. How it is done:
To evaluate the durability of the induced tolerization status established with the SigL-conjugated adalimumab (as exemplified in Examples 4 and 11), female C57Bl/6 mice (n=5 per group) were primed with four subcutaneous doses of either SigL-conjugated adalimumab (4 mg/kg) or unconjugated adalimumab (4 mg/kg) given seven days apart over a 28 day period. Animals in both groups were later challenged with single subcutaneous doses of unconjugated adalimumab (4 mg/kg) at days 91, 147, 174, and 202. Animals were injected with 0.1 ml (˜4 mg/kg) of the 0.8 mg/ml test article preparations on the rear flanks. The total dose based on a 20 g mouse would be 4 mg/kg per injection per dose. Bleeds were taken for anti-drug antibody analysis at days 0, 28, 112, 146, 168, 201, and 232. Anti-drug antibody (ADA) response assays were performed as described in Example 4.

As to adalimumab, the “immunogenicity (anti-drug antibody response, serum IgG titer)” value in data set [1] is listed as “highly immunogenic”. Also, the anti-adalimumab titers entry in data set [2] is “progressively stronger anti-adalimumab titers”. For the same substance, the anti-drug antibody level entry in data set [3] is listed as “strong, saturating level of ADA”.
